The target in one assay is T1, human beta-Klotho (KLB) (human, UniProt Q86Z14 53-997).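 Also: Anti-KLB antibodies captured on anti-human Fc CM5 chip, KLB injected as analyte, 180 s association and 1800 s dissociation, fitted to 1:1 binding model.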
T1 construct: bought protein; also called human KLB
T1 sequence (looked up): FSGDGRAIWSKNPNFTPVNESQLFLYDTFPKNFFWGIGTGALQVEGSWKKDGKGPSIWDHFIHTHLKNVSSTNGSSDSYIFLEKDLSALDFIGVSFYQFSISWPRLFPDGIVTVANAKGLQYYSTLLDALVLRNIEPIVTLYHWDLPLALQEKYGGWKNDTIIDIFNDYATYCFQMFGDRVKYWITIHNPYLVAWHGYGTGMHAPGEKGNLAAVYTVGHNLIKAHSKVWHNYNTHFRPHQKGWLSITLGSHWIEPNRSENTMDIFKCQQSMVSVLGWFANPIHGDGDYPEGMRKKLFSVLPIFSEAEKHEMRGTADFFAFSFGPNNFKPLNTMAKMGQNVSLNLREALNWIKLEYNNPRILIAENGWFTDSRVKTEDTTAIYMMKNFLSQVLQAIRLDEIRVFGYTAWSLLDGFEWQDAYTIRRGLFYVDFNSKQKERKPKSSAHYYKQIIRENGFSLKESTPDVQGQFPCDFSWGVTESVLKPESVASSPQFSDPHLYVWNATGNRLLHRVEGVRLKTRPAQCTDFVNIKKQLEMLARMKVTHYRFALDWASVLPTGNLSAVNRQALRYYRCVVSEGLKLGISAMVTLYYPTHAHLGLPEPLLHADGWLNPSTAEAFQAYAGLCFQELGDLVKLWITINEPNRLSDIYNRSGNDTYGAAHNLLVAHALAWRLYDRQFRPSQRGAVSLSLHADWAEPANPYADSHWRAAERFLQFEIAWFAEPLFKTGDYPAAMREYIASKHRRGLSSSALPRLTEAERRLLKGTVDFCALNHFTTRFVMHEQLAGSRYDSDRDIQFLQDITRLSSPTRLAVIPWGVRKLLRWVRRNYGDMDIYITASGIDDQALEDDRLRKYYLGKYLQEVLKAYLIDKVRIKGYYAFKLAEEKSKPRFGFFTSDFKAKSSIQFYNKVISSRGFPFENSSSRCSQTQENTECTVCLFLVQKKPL
Nature of the assay: SPR. A general note: Surface plasmon resonance follows binding to a sensor surface in real time, without labels.

Assay [1] has as its target human FGFR1c + KLB receptor complex on HEK293 iLite FGF21 reporter cells (human, UniProt P11362 22-822; Q86Z14 1-1044). Nature of the assay: cell-based or functional assay.

Changes are numbered by the printed parent chain.

Sequence of human FGFR1c + KLB receptor complex on HEK293 iLite FGF21 reporter cells (P11362 22-822, chain 1 of 2): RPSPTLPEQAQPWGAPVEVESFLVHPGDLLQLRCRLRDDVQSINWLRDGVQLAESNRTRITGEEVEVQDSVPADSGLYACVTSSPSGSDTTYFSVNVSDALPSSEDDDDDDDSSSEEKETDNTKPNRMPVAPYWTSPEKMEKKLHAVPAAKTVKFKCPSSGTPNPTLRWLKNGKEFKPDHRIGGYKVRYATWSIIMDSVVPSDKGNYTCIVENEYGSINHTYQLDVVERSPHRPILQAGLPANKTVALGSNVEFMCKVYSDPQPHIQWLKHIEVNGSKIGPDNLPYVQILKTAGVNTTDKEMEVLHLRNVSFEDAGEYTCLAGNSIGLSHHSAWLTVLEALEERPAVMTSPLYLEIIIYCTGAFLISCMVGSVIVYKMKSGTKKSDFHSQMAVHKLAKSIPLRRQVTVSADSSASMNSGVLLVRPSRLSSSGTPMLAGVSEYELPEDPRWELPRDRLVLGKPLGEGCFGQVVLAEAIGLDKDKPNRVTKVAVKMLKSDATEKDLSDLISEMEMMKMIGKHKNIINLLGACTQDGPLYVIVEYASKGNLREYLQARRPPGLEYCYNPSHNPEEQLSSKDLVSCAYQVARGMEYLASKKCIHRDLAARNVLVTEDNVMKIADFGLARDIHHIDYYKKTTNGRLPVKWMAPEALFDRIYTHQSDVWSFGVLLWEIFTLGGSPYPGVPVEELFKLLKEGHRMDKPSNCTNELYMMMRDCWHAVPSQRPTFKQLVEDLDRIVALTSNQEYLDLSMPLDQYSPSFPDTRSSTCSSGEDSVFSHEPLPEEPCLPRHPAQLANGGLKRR
Sequence of human FGFR1c + KLB receptor complex on HEK293 iLite FGF21 reporter cells (Q86Z14 whole entry, chain 2 of 2): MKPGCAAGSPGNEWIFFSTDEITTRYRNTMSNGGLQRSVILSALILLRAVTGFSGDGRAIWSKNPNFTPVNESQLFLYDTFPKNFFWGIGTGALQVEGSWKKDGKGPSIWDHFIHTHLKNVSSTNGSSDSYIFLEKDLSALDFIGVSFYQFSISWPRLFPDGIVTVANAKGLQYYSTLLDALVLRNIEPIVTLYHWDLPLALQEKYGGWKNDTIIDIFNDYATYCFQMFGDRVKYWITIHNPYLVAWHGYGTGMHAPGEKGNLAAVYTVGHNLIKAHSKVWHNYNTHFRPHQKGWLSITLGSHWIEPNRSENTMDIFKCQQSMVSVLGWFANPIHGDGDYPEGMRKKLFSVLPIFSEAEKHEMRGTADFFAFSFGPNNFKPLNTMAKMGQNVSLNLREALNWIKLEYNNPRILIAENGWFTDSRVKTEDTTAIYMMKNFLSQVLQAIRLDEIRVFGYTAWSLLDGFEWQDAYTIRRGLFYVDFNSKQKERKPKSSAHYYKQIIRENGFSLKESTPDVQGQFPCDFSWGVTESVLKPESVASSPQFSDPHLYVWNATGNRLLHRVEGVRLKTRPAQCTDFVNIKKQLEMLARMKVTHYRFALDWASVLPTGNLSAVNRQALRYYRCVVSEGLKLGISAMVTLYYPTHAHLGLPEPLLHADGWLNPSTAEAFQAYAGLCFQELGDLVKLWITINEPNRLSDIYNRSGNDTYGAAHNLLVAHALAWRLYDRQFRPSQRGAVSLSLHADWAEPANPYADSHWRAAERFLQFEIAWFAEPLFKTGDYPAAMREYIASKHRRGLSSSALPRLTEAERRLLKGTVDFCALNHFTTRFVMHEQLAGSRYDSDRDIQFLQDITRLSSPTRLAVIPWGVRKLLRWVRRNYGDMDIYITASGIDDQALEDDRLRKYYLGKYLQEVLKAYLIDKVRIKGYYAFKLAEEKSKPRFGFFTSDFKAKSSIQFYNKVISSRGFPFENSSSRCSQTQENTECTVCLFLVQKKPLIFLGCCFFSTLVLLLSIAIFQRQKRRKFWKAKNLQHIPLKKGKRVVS

B1: Ab0311 (antibody, IgG4, V domains shown)
VH: QVTLKESGPVLVKPTETLTLTCTVSGFSLNNARVGVSWIRQPPGKALEWLAHIFSNDEKSYSTSLKSRLTISKDTSKSQVVLTMTNMDPVDTATYYCARSVVTGGYYYEGMDVWGQGTTVTVSS
VL: SYVLTQPPSVSVAPGQTARITCGGNNIGSESVHWYQQKPGQAPVLVVYYESDRPSGIPERFSGSNSGNTATLTISRVEAGDEADYYCQVWDGESDHVVFGGGTKLTVLG
notes: IgG4 PE
As a reminder, the koff is a measure of how fast the partners let go of each other. A word on the EC50: it is the concentration needed to bring the measured effect to its halfway point. The Emax is the maximal effect, on the per cent scale that the assay sets. Turning to B1, the koff with human beta-Klotho (KLB) is 0.0013 s⁻¹. Further, in assay [1], the EC50 was found to be 50 pM and the Emax came out at 1080%.

B2: Ab0314 (antibody, IgG4, V domains shown)
VH: B1 VH
VL: B1 VL with N25S, Y49D, E50D, D91T
notes: IgG4 PE
Turning to B2, in the assay with human beta-Klotho (KLB), the off-rate (koff) is 0.000402 s⁻¹. Moreover, in assay [1], the EC50 was 50 pM and the Emax stood at 1110%.

B3: Ab0345 (antibody, IgG4, V domains shown)
VH: B1 VH
VL: B1 VL with N25S, Y49A, E50A, D91E, E93A
notes: IgG4 PE
B3 displayed an off-rate constant (koff) in the assay with human beta-Klotho (KLB) of 0.00188 s⁻¹. Moreover, in assay [1], the EC50 stood at 70 pM and the maximal effect (Emax) is 908%.

B4: Ab0333 (antibody, IgG4, V domains shown)
VH: B1 VH
VL: B1 VL with N25S, Y49S, E50Y, D91A, E93S
notes: IgG4 PE
For B4, the koff with human beta-Klotho (KLB) worked out at 0.000251 s⁻¹. Also, in assay [1], the concentration for a half-maximal effect (EC50) worked out at 200 pM and the maximal effect (Emax) is 769%.

B5: Ab0358 (antibody, IgG4, V domains shown)
VH: B1 VH
VL: B1 VL with N25S, Y49E, E50A, D91H, E93S
notes: IgG4 PE
Molecule B5 registered a koff with human beta-Klotho (KLB) of 0.000454 s⁻¹. Moreover, in assay [1], the 50% effective concentration (EC50) was found to be 70 pM and the maximal effect (Emax) stood at 858%.

B6: Ab0355 (antibody, IgG4, V domains shown)
VH: B1 VH
VL: B1 VL with N25S, Y49E, E50Y, D91E, E93S
notes: IgG4 PE
B6 returned a koff with human beta-Klotho (KLB) of 0.00195 s⁻¹. In assay [1], the half-maximal effective concentration (EC50) was found to be 70 pM and the maximal effect (Emax) was 829%.

B7: Ab0312 (antibody, IgG4, V domains shown)
VH: B1 VH
VL: B1 VL with N25S
notes: IgG4 PE
With B7, the koff with human beta-Klotho (KLB) worked out at 0.00053 s⁻¹. For the same molecule, in assay [1], the EC50 stood at 70 pM and the Emax came out at 1010%.

B8: Ab0337 (antibody, IgG4, V domains shown)
VH: B1 VH
VL: B1 VL with N25S, Y49S, E50H, D91E
notes: IgG4 PE
On to B8, for which the koff with human beta-Klotho (KLB) stood at 0.00053 s⁻¹. In assay [1], the EC50 came to 60 pM and the maximum response (Emax) stood at 1030%.

B9: Ab0344 (antibody, IgG4, V domains shown)
VH: B1 VH
VL: B1 VL with N25S, Y49A, E50A, D91E, E93S
notes: IgG4 PE
As to B9, in the assay with human beta-Klotho (KLB), the koff was determined as 0.00168 s⁻¹. Further, in assay [1], the concentration giving a half-maximal response (EC50) came out at 70 pM and the Emax is 958%.

B10: Ab0361 (antibody, IgG4, V domains shown)
VH: B1 VH
VL: B1 VL with N25S, Y49E, E50S, D91E, E93S
notes: IgG4 PE
B10: the koff with human beta-Klotho (KLB) was 0.00163 s⁻¹. Further, in assay [1], the EC50 came to 70 pM and the Emax was 986%.

B11: Ab0360 (antibody, IgG4, V domains shown)
VH: B1 VH
VL: B1 VL with N25S, Y49E, E50H, D91E, E93S
notes: IgG4 PE
B11: the off-rate constant (koff) in the assay with human beta-Klotho (KLB) was found to be 0.00192 s⁻¹. In assay [1], the EC50 worked out at 80 pM and the maximal response (Emax) amounted to 845%.

B12: Ab0352 (antibody, IgG4, V domains shown)
VH: B1 VH
VL: B1 VL with N25S, Y49E, D91E, E93S
notes: IgG4 PE
On to B12, for which, in the assay with human beta-Klotho (KLB), the koff turned out to be 0.000419 s⁻¹. In assay [1], the EC50 came to 70 pM and the Emax is 1010%.

B13: Ab0338 (antibody, IgG4, V domains shown)
VH: B1 VH
VL: B1 VL with N25S, Y49S, E50S, D91A, E93S
notes: IgG4 PE
Consider B13, for which, in the assay with human beta-Klotho (KLB), the off-rate constant (koff) is 0.000429 s⁻¹. Besides, in assay [1], the 50% effective concentration (EC50) was 60 pM and the maximum response (Emax) came to 971%.

B14: Ab0340 (antibody, IgG4, V domains shown)
VH: B1 VH
VL: B1 VL with N25S, Y49A, D91E, E93S
notes: IgG4 PE
In turn, B14 came in with an off-rate (koff) with human beta-Klotho (KLB) of 0.00176 s⁻¹. Besides, in assay [1], the EC50 amounted to 50 pM and the maximal effect (Emax) is 912%.

B15: Ab0417 (antibody, IgG4, V domains shown)
VH: B1 VH
VL: B1 VL with N25S, D91H
notes: IgG4 PE
Consider B15, for which the off-rate constant (koff) with human beta-Klotho (KLB) was found to be 0.000303 s⁻¹. In assay [1], the EC50 amounted to 60 pM and the Emax is 1110%.

B16: Ab0326 (antibody, IgG4, V domains shown)
VH: B1 VH
VL: B1 VL with N25S, D91E, E93S
notes: IgG4 PE
B16 registered an off-rate constant (koff) in the assay with human beta-Klotho (KLB) of 0.00175 s⁻¹. Besides, in assay [1], the EC50 was determined as 70 pM and the maximal effect (Emax) was 1010%.

B17: Ab0327 (antibody, IgG4, V domains shown)
VH: B1 VH
VL: B1 VL with N25S, E50Y, D91E
notes: IgG4 PE
The molecule B17 showed a koff in the assay with human beta-Klotho (KLB) of 0.000346 s⁻¹. Moreover, in assay [1], the half-maximal effective concentration (EC50) came to 50 pM and the Emax was determined as 995%.

B18: Ab0353 (antibody, IgG4, V domains shown)
VH: B1 VH
VL: B1 VL with N25S, Y49E, D91E, E93A
notes: IgG4 PE
B18: in the assay with human beta-Klotho (KLB), the koff was 0.00038 s⁻¹. Besides, in assay [1], the half-maximal effective concentration (EC50) came out at 80 pM and the maximal response (Emax) amounted to 895%.

B19: Ab0354 (antibody, IgG4, V domains shown)
VH: B1 VH
VL: B1 VL with N25S, Y49E, D91H, E93S
notes: IgG4 PE
B19 displayed a koff with human beta-Klotho (KLB) of 0.00158 s⁻¹. Further, in assay [1], the half-maximal effective concentration (EC50) was found to be 70 pM and the maximum response (Emax) is 878%.

B20: Ab0364 (antibody, IgG4, V domains shown)
VH: B1 VH
VL: B1 VL with N25A, Y49E, D91E, E93S
notes: IgG4 PE
B20: the koff with human beta-Klotho (KLB) came out at 0.00169 s⁻¹. Also, in assay [1], the EC50 turned out to be 110 pM and the Emax was 991%.

B21: Ab0416 (antibody, IgG4, V domains shown)
VH: B1 VH
VL: B1 VL with N25S, D91E
notes: IgG4 PE
Turning to B21, the koff with human beta-Klotho (KLB) is 0.00107 s⁻¹. Moreover, in assay [1], the EC50 was 50 pM and the Emax was determined as 863%.

B22: Ab0357 (antibody, IgG4, V domains shown)
VH: B1 VH
VL: B1 VL with N25S, Y49E, E50A, D91E, E93S
notes: IgG4 PE
B22: the koff with human beta-Klotho (KLB) is 0.00185 s⁻¹. Moreover, in assay [1], the EC50 was found to be 80 pM and the maximum response (Emax) stood at 893%.

B23: Ab0332 (antibody, IgG4, V domains shown)
VH: B1 VH
VL: B1 VL with N25S, Y49S, D91E, E93A
notes: IgG4 PE
B23: the koff with human beta-Klotho (KLB) is 0.00143 s⁻¹. For the same molecule, in assay [1], the 50% effective concentration (EC50) was 50 pM and the Emax was found to be 995%.

Values taken from patent US20220010021A1 (Sanofi, published 2022).
